In assay [1] the target is LOV1-C57M-SL-LOV2-C250A fusion protein (short linker) (UniProt Q8LPD9). The assay is described as follows: crystal structure; fusion protein pre-irradiated with blue light and reoxidised (FMN^·-Met/FMNox); 20% PEG 3350, 0.1 M BIS-TRIS pH 6.5, 0.1 M ammonium sulfate, 5 mg/mL.
The target in assay [2] is LOV2-C250A single domain of Phot1. The assay is described as follows: crystal structure; LOV2-C250A crystallized in the dark (FMNox).

In assay [1], “LOV1-C57M-SL-LOV2-C250A fusion protein (short linker) (from UniProt Q8LPD9 17-125)” registered a stoichiometry N of 2.
In turn, “LOV2-C250A single domain of Phot1 (domain or fragment)” yielded a stoichiometry N in assay [2] of 2.

Source of the values: paper PMC12232321.
